Assay results from paper PMC2699497.

B1: 5'-FAM 10-mer nontarget duplex (dsDNA)
DNA 1: TCGATCGATG
DNA 2: CATCGATCGA
B2: unlabeled 10-mer nontarget duplex (NMR) (dsDNA)
DNA 1: CTGGATCCAG
DNA 2: CTGGATCCAG

What was measured:
[1] = biological target: T1, human uracil DNA glycosylase (UNG) (human, UniProt P13051 94-313); test: fluorescence anisotropy
[2] = biological target: T1, human uracil DNA glycosylase (UNG); test: NMR HSQC titration, relaxation dispersion

T1 sequence (P13051 94-313): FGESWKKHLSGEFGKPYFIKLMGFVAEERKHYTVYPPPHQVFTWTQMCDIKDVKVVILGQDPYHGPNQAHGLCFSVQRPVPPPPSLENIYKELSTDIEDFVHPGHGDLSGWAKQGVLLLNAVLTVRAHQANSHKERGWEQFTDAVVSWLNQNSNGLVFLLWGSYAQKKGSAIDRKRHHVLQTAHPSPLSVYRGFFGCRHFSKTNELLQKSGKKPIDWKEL

| Binder | Kd [1] [µM] | binding result [2] |
| --- | --- | --- |
| B1 | 29 ± 0.4 |  |
| B2 |  | binds |
